Blank lines part the entries; values can stand above or below the binder they belong to.
Biological target: T1, CD123 (Homo sapiens (Human), UniProt P26951 19-305, limits assumed)
T1 construct: The CD123 construct used in the ELISA is not described; also called CD123-Signal
T1 sequence: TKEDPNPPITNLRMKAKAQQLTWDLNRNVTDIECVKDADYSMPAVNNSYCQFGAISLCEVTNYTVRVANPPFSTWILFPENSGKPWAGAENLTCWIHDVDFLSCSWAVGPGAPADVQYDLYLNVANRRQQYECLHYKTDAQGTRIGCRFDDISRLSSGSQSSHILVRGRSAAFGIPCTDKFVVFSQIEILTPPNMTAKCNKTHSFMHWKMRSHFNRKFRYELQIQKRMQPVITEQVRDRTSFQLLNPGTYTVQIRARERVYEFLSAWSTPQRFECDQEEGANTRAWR
Experiment: ELISA
Parameters: unit not given here

B1: D domain of SEQ ID NO: 571 (designed binder)
chain: MGSWYEFDMRLDAIWERLTALGGSEAELADFEQYIAEFERQLQDYKGKGNPEVEALFDEAWAIEDELYAYRHN
ELISA_avg: 13.7

B6: D domain of SEQ ID NO: 572 (designed binder)
chain: MGSWSEFDSRLDAIAYRLFALGGSEAELAQFEWIIADFEEDLQMYKGKGNPEVEALFSEAYAIEIELNAYRHN
ELISA_avg: 4.3

B7: D domain of SEQ ID NO: 563 (designed binder)
chain: MGSWSWFQWDLAGIKDHLEALGGSEAELAEFESEIAYFEDELQWYKGKGNPEVEALRKEAAAIRDELQAYRHN
ELISA_avg: 12.9

B8: D domain of SEQ ID NO: 570 (designed binder)
chain: MGSWYEFDHRLDAIYQRLWALGGSEAELAEFEYGIAEFEEYLQDYKGKGNPEVEALISEAWAIEWELSAYRHN
ELISA_avg: 4.6

B11: D domain of SEQ ID NO: 565 (designed binder)
chain: MGSWFEFKWTLALIKQELEALGGSEAELADFEQEIAEFEWWLQTYKGKGNPEVEALRKEAAAIRDELQAYRHN
ELISA_avg: 4.9

B12: D domain of SEQ ID NO: 573 (designed binder)
chain: MGSWYEFDDRLDAIAYRLNALGGSEAELAWFEWEIAEFELDLQWYKGKGNPEVEALVWEADAIEWELEAYRHN
ELISA_avg: 4.6

B15: D domain of SEQ ID NO: 576 (designed binder)
chain: MGSWEEFDVRLDAIFNRLWALGGSEAELAEFEFDIAWFEMDLQEYKGKGNPEVEALFDEAEAITNELVAYRHN
ELISA_avg: 4.7

B16: D domain of SEQ ID NO: 558 (designed binder)
chain: MGSWYQFKDDLAHIKHLLEALGGSEAELAVFEYIIADFESFLQIYKGKGNPEVEALRKEAAAIRDELQAYRHN
ELISA_avg: 4

B20: D domain of SEQ ID NO: 569 (designed binder)
chain: MGSWWEFQFRLYAIDQRLLALGGSEAELAEFEQDIADFEWMLQDYKGKGNPEVEALMLEADAIEAELKAYRHN
ELISA_avg: 3.1

B24: D domain of SEQ ID NO: 557 (designed binder)
chain: MGSWDFFKYDLANINEWLEALGGSEAELADFEYGIADFELWLQDYKGKGNPEVEALRKEAAAIRDELQAYRHN
ELISA_avg: 5.5

B26: D domain of SEQ ID NO: 568 (designed binder)
chain: MGSWWEFDHRLTAIDTRLQALGGSEAELAEFESSIAEFEWWLQDYKGKGNPEVEALFAEAEAIYVELDAYRHN
ELISA_avg: 4.3

B28: D domain of SEQ ID NO: 562 (designed binder)
chain: MGSWHWFKEDLAMITDVLEALGGSEAELAAFESEIAVFEADLQYYKGKGNPEVEALRKEAAAIRDELQAYRHN
ELISA_avg: 5.2

B29: D domain of SEQ ID NO: 566 (designed binder)
chain: MGSWAEFKQRLAAIKTRLEALGGSEAELAAFMDEIMAFEWELWAYKGKGNPEVEALMNEAFAIDVELYAYRHN
ELISA_avg: 3.4

B31: D domain of SEQ ID NO: 556 (designed binder)
chain: MGSWDEFKEDLAHIKTDLEALGGSEAELALFEDEIADFEMYLQHYKGKGNPEVEALRKEAAAIRDELQAYRHN
ELISA_avg: 6.3

B32: D domain of SEQ ID NO: 575 (designed binder)
chain: MGSWEEFDQRLDAIDVRLYALGGSEAELAEFEFDIAAFEEWLQLYKGKGNPEVEALNMEAFAITDELCAYRHN
ELISA_avg: 3.6

B35: D domain of SEQ ID NO: 559 (designed binder)
chain: MGSWAEFKHDLADIKRELEALGGSEAELAWFELSIAFFEDELQHYKGKGNPEVEALRKEAAAIRDELQAYRHN
ELISA_avg: 3.3

B38: D domain of SEQ ID NO: 574 (designed binder)
chain: MGSWFEFDERLDAIGSRLTALGGSEAELASFEFYIADFEEWLQQYKGKGNPEVEALEWEAFAIDEELGAYRHN
ELISA_avg: 3.8

B40: D domain of SEQ ID NO: 564 (designed binder)
chain: MGSWTEFKGELAEIKWILEALGGSEAELAFFEDEIAAFEWDLQKYKGKGNPEVEALRKEAAAIRDELQAYRHN
ELISA_avg: 8.2

B41: D domain of SEQ ID NO: 567 (designed binder)
chain: MGSWAEFKQRLAAIKTRLEALGGSEAELAAFEWEIVAFFSELFAYKGKGNPEVEALRDEAIAIETELVAYRHN
ELISA_avg: 3.6

B42: D domain of SEQ ID NO: 561 (designed binder)
chain: MGSWFQFKEFLAMITHNLEALGGSEAELAEFEHDIALFESELQQYKGKGNPEVEALRKEAAAIRDELQAYRHN
ELISA_avg: 3.1

B43: D domain of SEQ ID NO: 560 (designed binder)
chain: MGSWVVFKQDLADINHQLEALGGSEAELAWFEWEIADFEWELQHYKGKGNPEVEALRKEAAAIRDELQAYRHN
ELISA_avg: 3.6

Results, then the binder that gave them:

ELISA_avg: 3.6
B2: D domain of SEQ ID NO: 583 (designed binder)
chain: MGSWYEFDERLWAIWERLDALGGSEAELAHFEWVIADFENDLQWYKGKGNPEVEALEFEAEAIVTELHAYRHN

ELISA_avg: 3.3
B3: D domain of SEQ ID NO: 596 (designed binder)
chain: MGSWEEFHWRLGAIDARLEALGGSEAELAWFEDGIADFEAILQDYKGKGNPEVEALDSEAVAIHHELWAYRHN

ELISA_avg: 6.4
B4: D domain of SEQ ID NO: 581 (designed binder)
chain: MGSWTEFDDRLFAIYWRLDALGGSEAELAWFEEVIAEFENDLQVYKGKGNPEVEALDDEAHAISIELEAYRHN

ELISA_avg: 4.5
B5: D domain of SEQ ID NO: 578 (designed binder)
chain: MGSWYEFDHRLEAIYDRLWALGGSEAELAFFEFDIADFEWDLQSYKGKGNPEVEALFDEAAAIGHELLAYRHN

ELISA_avg: 3.9
B9: D domain of SEQ ID NO: 592 (designed binder)
chain: MGSWTEFTQRLEAIVDRLFALGGSEAELAEFENSIADFEWDLQWYKGKGNPEVEALNREAVAIDNELWAYRHN

ELISA_avg: 3.6
B10: D domain of SEQ ID NO: 597 (designed binder)
chain: MGSWYEFYERLWAIDDRLWALGGSEAELAEFEDSIATFEPSLQMYKGKGNPEVEALVAEAWAIFDELAAYRHN

ELISA_avg: 3.2
B13: D domain of SEQ ID NO: 598 (designed binder)
chain: MGSWFEFDQRLDAITFRLWALGGSEAELAEFEDVIALFEYHLQDYKGKGNPEVEALEVEAWAIFHELGAYRHN

ELISA_avg: 3.8
B14: D domain of SEQ ID NO: 595 (designed binder)
chain: MGSWYEFNMRLGAIDDRLQALGGSEAELAWFEDMIAIFEDDLQIYKGKGNPEVEALEQEAAAIHQELWAYRHN

ELISA_avg: 3.2
B17: D domain of SEQ ID NO: 594 (designed binder)
chain: MGSWNEFLLRLDAIEHRLFALGGSEAELAEFEWEIADFEDDLQWYKGKGNPEVEALVEEAEAIDVELVAYRHN

ELISA_avg: 3.4
B18: D domain of SEQ ID NO: 582 (designed binder)
chain: MGSWSEFDQRLEAIWNRLDALGGSEAELADFEREIAYFENQLQWYKGKGNPEVEALNNEAFAIVDELGAYRHN

ELISA_avg: 4.1
B19: D domain of SEQ ID NO: 579 (designed binder)
chain: MGSWNEFDDRLLAIWGRLDALGGSEAELAFFEEQIAGFEDELQWYKGKGNPEVEALDQEAEAIEKELWAYRHN

ELISA_avg: 5
B21: D domain of SEQ ID NO: 580 (designed binder)
chain: MGSWVEFDDRLDAIWERLDALGGSEAELAWFEEQIAVFEHQLQDYKGKGNPEVEALNQEAEAIDLELKAYRHN

ELISA_avg: 6.7
B22: D domain of SEQ ID NO: 588 (designed binder)
chain: MGSWEEFDTRLLAIFGRLGALGGSEAELALFEMLIAKFEDDLQNYKGKGNPEVEALSEEAFAIDHELGAYRHN

ELISA_avg: 4.4
B23: D domain of SEQ ID NO: 586 (designed binder)
chain: MGSWEEFYMRLVAIHMRLRALGGSEAELAVFENYIAEFEEYLQYYKGKGNPEVEALTIEADAIGTELGAYRHN

ELISA_avg: 4.5
B25: D domain of SEQ ID NO: 577 (designed binder)
chain: MGSWEEFDKRLDAITRRLMALGGSEAELAEFESTIAWFEWDLQEYKGKGNPEVEALDWEAYAIDYELGAYRHN

ELISA_avg: 5.4
B27: D domain of SEQ ID NO: 587 (designed binder)
chain: MGSWDEFYYRLVAITHRLHALGGSEAELAWFEDDIAGFEWDLQTYKGKGNPEVEALYKEAGAIGMELTAYRHN

ELISA_avg: 4.3
B30: D domain of SEQ ID NO: 590 (designed binder)
chain: MGSWEEFHERLDAIDERLEALGGSEAELAFFEDDIASFEDWLQWYKGKGNPEVEALSREADAINFELEAYRHN

ELISA_avg: 3.1
B33: D domain of SEQ ID NO: 584 (designed binder)
chain: MGSWMEFDYRLEAIWMRLIALGGSEAELADFESSIADFEHHLQSYKGKGNPEVEALEWEAFAIGVELDAYRHN

ELISA_avg: 3.4
B34: D domain of SEQ ID NO: 589 (designed binder)
chain: MGSWREFDQRLWAIDWRLEALGGSEAELAMFEWMIATFEDDLQWYKGKGNPEVEALYREAFAIDWELDAYRHN

ELISA_avg: 4.4
B36: D domain of SEQ ID NO: 585 (designed binder)
chain: MGSWYEFESRLEAIWWRLEALGGSEAELAQFEQYIADFEQHLQWYKGKGNPEVEALDWEADAIWLELQAYRHN

ELISA_avg: 5.2
B37: D domain of SEQ ID NO: 591 (designed binder)
chain: MGSWNEFYERLEAIDRRLFALGGSEAELALFEWMIADFEDDLQMYKGKGNPEVEALINEAGAIGFELEAYRHN

ELISA_avg: 6.4
B39: D domain of SEQ ID NO: 593 (designed binder)
chain: MGSWVEFIMRLDAIYERLDALGGSEAELAEFEWHIADFEDHLQWYKGKGNPEVEALFEEADAIWEELWAYRHN

Source: patent publication US20250026849A1 (ARCELLX, published 2025)
